Source: article PMC11851098 (Nucleic Acids Research, 2025)

Key:
SEC = target: the molecule itself; experiment: SEC
Suv3 helicase = target: T1, Suv3 helicase (UniProt Q8IYB8 23-786, Alexa 647 label (site not stated) in the MST assay); experiment: MST
T1 sequence (looked up): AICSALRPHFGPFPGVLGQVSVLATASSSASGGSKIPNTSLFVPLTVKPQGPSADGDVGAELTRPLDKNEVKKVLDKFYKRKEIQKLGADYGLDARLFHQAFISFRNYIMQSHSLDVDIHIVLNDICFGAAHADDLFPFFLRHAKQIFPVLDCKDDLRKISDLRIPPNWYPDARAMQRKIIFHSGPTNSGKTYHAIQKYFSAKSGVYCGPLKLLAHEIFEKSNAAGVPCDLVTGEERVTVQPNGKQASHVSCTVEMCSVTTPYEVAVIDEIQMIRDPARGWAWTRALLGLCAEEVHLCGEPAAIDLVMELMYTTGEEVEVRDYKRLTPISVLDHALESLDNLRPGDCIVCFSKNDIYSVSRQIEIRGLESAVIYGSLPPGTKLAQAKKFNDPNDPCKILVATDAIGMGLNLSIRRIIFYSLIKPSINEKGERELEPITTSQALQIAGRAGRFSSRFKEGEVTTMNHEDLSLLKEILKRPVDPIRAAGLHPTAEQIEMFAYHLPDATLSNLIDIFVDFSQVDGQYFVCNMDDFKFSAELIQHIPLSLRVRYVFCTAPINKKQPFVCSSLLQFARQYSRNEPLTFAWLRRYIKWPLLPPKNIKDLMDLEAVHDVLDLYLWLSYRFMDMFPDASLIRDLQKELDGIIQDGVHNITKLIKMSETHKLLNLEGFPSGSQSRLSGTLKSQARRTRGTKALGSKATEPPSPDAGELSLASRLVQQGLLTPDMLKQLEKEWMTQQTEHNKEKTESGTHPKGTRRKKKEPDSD

SAXS = target: the molecule itself; experiment: SAXS

B1: human polynucleotide phosphorylase (hPNPase), wild type, residues 46-783 (enzyme, UniProt Q8TCS8 46-783, looked up)
chain: AVAVDLGNRKLEISSGKLARFADGSAVVQSGDTAVMVTAVSKTKPSPSQFMPLVVDYRQKAAAAGRIPTNYLRREIGTSDKEILTSRIIDRSIRPLFPAGYFYDTQVLCNLLAVDGVNEPDVLAINGASVALSLSDIPWNGPVGAVRIGIIDGEYVVNPTRKEMSSSTLNLVVAGAPKSQIVMLEASAENILQQDFCHAIKVGVKYTQQIIQGIQQLVKETGVTKRTPQKLFTPSPEIVKYTHKLAMERLYAVFTDYEHDKVSRDEAVNKIRLDTEEQLKEKFPEADPYEIIESFNVVAKEVFRSIVLNEYKRCDGRDLTSLRNVSCEVDMFKTLHGSALFQRGQTQVLCTVTFDSLESGIKSDQVITAINGIKDKNFMLHYEFPPYATNEIGKVTGLNRRELGHGALAEKALYPVIPRDFPFTIRVTSEVLESNGSSSMASACGGSLALMDSGVPISSAVAGVAIGLVTKTDPEKGEIEDYRLLTDILGIEDYNGDMDFKIAGTNKGITALQADIKLPGIPIKIVMEAIQQASVAKKEILQIMNKTISKPRASRKENGPVVETVQVPLSKRAKFVGPGGYNLKKLQAETGVTISQVDEETFSVFAPTPSAMHEARDFITEICKDDQEQQLEFGAVYTATITEIRDTGVMVKLYPNMTAVLLHNTQLDQRKIKHPTALGLEVGQEIQVKYFGRDPADGRMRLSRKVLQSPATTVVRTLNDRSSIVMGEPISQSSSNSQ
- stoichiometry N (SEC): 3
- Kd (Suv3 helicase): 297 ± 80 nM

B2: hPNPase D713Y mutant, residues 46-783 (enzyme, human, UniProt Q8TCS8 46-783, looked up)
chain: AVAVDLGNRKLEISSGKLARFADGSAVVQSGDTAVMVTAVSKTKPSPSQFMPLVVDYRQKAAAAGRIPTNYLRREIGTSDKEILTSRIIDRSIRPLFPAGYFYDTQVLCNLLAVDGVNEPDVLAINGASVALSLSDIPWNGPVGAVRIGIIDGEYVVNPTRKEMSSSTLNLVVAGAPKSQIVMLEASAENILQQDFCHAIKVGVKYTQQIIQGIQQLVKETGVTKRTPQKLFTPSPEIVKYTHKLAMERLYAVFTDYEHDKVSRDEAVNKIRLDTEEQLKEKFPEADPYEIIESFNVVAKEVFRSIVLNEYKRCDGRDLTSLRNVSCEVDMFKTLHGSALFQRGQTQVLCTVTFDSLESGIKSDQVITAINGIKDKNFMLHYEFPPYATNEIGKVTGLNRRELGHGALAEKALYPVIPRDFPFTIRVTSEVLESNGSSSMASACGGSLALMDSGVPISSAVAGVAIGLVTKTDPEKGEIEDYRLLTDILGIEDYNGDMDFKIAGTNKGITALQADIKLPGIPIKIVMEAIQQASVAKKEILQIMNKTISKPRASRKENGPVVETVQVPLSKRAKFVGPGGYNLKKLQAETGVTISQVDEETFSVFAPTPSAMHEARDFITEICKDDQEQQLEFGAVYTATITEIRDTGVMVKLYPNMTAVLLHNTQLYQRKIKHPTALGLEVGQEIQVKYFGRDPADGRMRLSRKVLQSPATTVVRTLNDRSSIVMGEPISQSSSNSQ
- stoichiometry N (SAXS): 3
- Kd (Suv3 helicase): 3890 ± 545 nM

B3: hPNPase G499R mutant, residues 46-783 (enzyme, human, UniProt Q8TCS8 46-783, looked up)
chain: AVAVDLGNRKLEISSGKLARFADGSAVVQSGDTAVMVTAVSKTKPSPSQFMPLVVDYRQKAAAAGRIPTNYLRREIGTSDKEILTSRIIDRSIRPLFPAGYFYDTQVLCNLLAVDGVNEPDVLAINGASVALSLSDIPWNGPVGAVRIGIIDGEYVVNPTRKEMSSSTLNLVVAGAPKSQIVMLEASAENILQQDFCHAIKVGVKYTQQIIQGIQQLVKETGVTKRTPQKLFTPSPEIVKYTHKLAMERLYAVFTDYEHDKVSRDEAVNKIRLDTEEQLKEKFPEADPYEIIESFNVVAKEVFRSIVLNEYKRCDGRDLTSLRNVSCEVDMFKTLHGSALFQRGQTQVLCTVTFDSLESGIKSDQVITAINGIKDKNFMLHYEFPPYATNEIGKVTGLNRRELGHGALAEKALYPVIPRDFPFTIRVTSEVLESNGSSSMASACGGSLALMDSRVPISSAVAGVAIGLVTKTDPEKGEIEDYRLLTDILGIEDYNGDMDFKIAGTNKGITALQADIKLPGIPIKIVMEAIQQASVAKKEILQIMNKTISKPRASRKENGPVVETVQVPLSKRAKFVGPGGYNLKKLQAETGVTISQVDEETFSVFAPTPSAMHEARDFITEICKDDQEQQLEFGAVYTATITEIRDTGVMVKLYPNMTAVLLHNTQLDQRKIKHPTALGLEVGQEIQVKYFGRDPADGRMRLSRKVLQSPATTVVRTLNDRSSIVMGEPISQSSSNSQ
- stoichiometry N (SAXS): 3
- Kd (Suv3 helicase): 474 ± 70 nM

B4: hPNPase S484A mutant (inactive) (enzyme, human, UniProt Q8TCS8 46-783, looked up)
chain: AVAVDLGNRKLEISSGKLARFADGSAVVQSGDTAVMVTAVSKTKPSPSQFMPLVVDYRQKAAAAGRIPTNYLRREIGTSDKEILTSRIIDRSIRPLFPAGYFYDTQVLCNLLAVDGVNEPDVLAINGASVALSLSDIPWNGPVGAVRIGIIDGEYVVNPTRKEMSSSTLNLVVAGAPKSQIVMLEASAENILQQDFCHAIKVGVKYTQQIIQGIQQLVKETGVTKRTPQKLFTPSPEIVKYTHKLAMERLYAVFTDYEHDKVSRDEAVNKIRLDTEEQLKEKFPEADPYEIIESFNVVAKEVFRSIVLNEYKRCDGRDLTSLRNVSCEVDMFKTLHGSALFQRGQTQVLCTVTFDSLESGIKSDQVITAINGIKDKNFMLHYEFPPYATNEIGKVTGLNRRELGHGALAEKALYPVIPRDFPFTIRVTSEVLESNGSSAMASACGGSLALMDSGVPISSAVAGVAIGLVTKTDPEKGEIEDYRLLTDILGIEDYNGDMDFKIAGTNKGITALQADIKLPGIPIKIVMEAIQQASVAKKEILQIMNKTISKPRASRKENGPVVETVQVPLSKRAKFVGPGGYNLKKLQAETGVTISQVDEETFSVFAPTPSAMHEARDFITEICKDDQEQQLEFGAVYTATITEIRDTGVMVKLYPNMTAVLLHNTQLDQRKIKHPTALGLEVGQEIQVKYFGRDPADGRMRLSRKVLQSPATTVVRTLNDRSSIVMGEPISQSSSNSQ
- stoichiometry N (SAXS): 3

B5: hPNPase P467S-S484A double mutant, residues 46-783 (enzyme, human, UniProt Q8TCS8 46-783, looked up)
chain: AVAVDLGNRKLEISSGKLARFADGSAVVQSGDTAVMVTAVSKTKPSPSQFMPLVVDYRQKAAAAGRIPTNYLRREIGTSDKEILTSRIIDRSIRPLFPAGYFYDTQVLCNLLAVDGVNEPDVLAINGASVALSLSDIPWNGPVGAVRIGIIDGEYVVNPTRKEMSSSTLNLVVAGAPKSQIVMLEASAENILQQDFCHAIKVGVKYTQQIIQGIQQLVKETGVTKRTPQKLFTPSPEIVKYTHKLAMERLYAVFTDYEHDKVSRDEAVNKIRLDTEEQLKEKFPEADPYEIIESFNVVAKEVFRSIVLNEYKRCDGRDLTSLRNVSCEVDMFKTLHGSALFQRGQTQVLCTVTFDSLESGIKSDQVITAINGIKDKNFMLHYEFPPYATNEIGKVTGLNRRELGHGALAEKALYPVIPRDFSFTIRVTSEVLESNGSSAMASACGGSLALMDSGVPISSAVAGVAIGLVTKTDPEKGEIEDYRLLTDILGIEDYNGDMDFKIAGTNKGITALQADIKLPGIPIKIVMEAIQQASVAKKEILQIMNKTISKPRASRKENGPVVETVQVPLSKRAKFVGPGGYNLKKLQAETGVTISQVDEETFSVFAPTPSAMHEARDFITEICKDDQEQQLEFGAVYTATITEIRDTGVMVKLYPNMTAVLLHNTQLDQRKIKHPTALGLEVGQEIQVKYFGRDPADGRMRLSRKVLQSPATTVVRTLNDRSSIVMGEPISQSSSNSQ
- stoichiometry N (SEC): 3

B6: hPNPase G499R-S484A double mutant, residues 46-783 (enzyme, human, UniProt Q8TCS8 46-783, looked up)
chain: AVAVDLGNRKLEISSGKLARFADGSAVVQSGDTAVMVTAVSKTKPSPSQFMPLVVDYRQKAAAAGRIPTNYLRREIGTSDKEILTSRIIDRSIRPLFPAGYFYDTQVLCNLLAVDGVNEPDVLAINGASVALSLSDIPWNGPVGAVRIGIIDGEYVVNPTRKEMSSSTLNLVVAGAPKSQIVMLEASAENILQQDFCHAIKVGVKYTQQIIQGIQQLVKETGVTKRTPQKLFTPSPEIVKYTHKLAMERLYAVFTDYEHDKVSRDEAVNKIRLDTEEQLKEKFPEADPYEIIESFNVVAKEVFRSIVLNEYKRCDGRDLTSLRNVSCEVDMFKTLHGSALFQRGQTQVLCTVTFDSLESGIKSDQVITAINGIKDKNFMLHYEFPPYATNEIGKVTGLNRRELGHGALAEKALYPVIPRDFPFTIRVTSEVLESNGSSAMASACGGSLALMDSRVPISSAVAGVAIGLVTKTDPEKGEIEDYRLLTDILGIEDYNGDMDFKIAGTNKGITALQADIKLPGIPIKIVMEAIQQASVAKKEILQIMNKTISKPRASRKENGPVVETVQVPLSKRAKFVGPGGYNLKKLQAETGVTISQVDEETFSVFAPTPSAMHEARDFITEICKDDQEQQLEFGAVYTATITEIRDTGVMVKLYPNMTAVLLHNTQLDQRKIKHPTALGLEVGQEIQVKYFGRDPADGRMRLSRKVLQSPATTVVRTLNDRSSIVMGEPISQSSSNSQ
- stoichiometry N (SEC): 3

B7: hPNPase D713Y-S484A double mutant, residues 46-783 (enzyme, human, UniProt Q8TCS8 46-783, looked up)
chain: AVAVDLGNRKLEISSGKLARFADGSAVVQSGDTAVMVTAVSKTKPSPSQFMPLVVDYRQKAAAAGRIPTNYLRREIGTSDKEILTSRIIDRSIRPLFPAGYFYDTQVLCNLLAVDGVNEPDVLAINGASVALSLSDIPWNGPVGAVRIGIIDGEYVVNPTRKEMSSSTLNLVVAGAPKSQIVMLEASAENILQQDFCHAIKVGVKYTQQIIQGIQQLVKETGVTKRTPQKLFTPSPEIVKYTHKLAMERLYAVFTDYEHDKVSRDEAVNKIRLDTEEQLKEKFPEADPYEIIESFNVVAKEVFRSIVLNEYKRCDGRDLTSLRNVSCEVDMFKTLHGSALFQRGQTQVLCTVTFDSLESGIKSDQVITAINGIKDKNFMLHYEFPPYATNEIGKVTGLNRRELGHGALAEKALYPVIPRDFPFTIRVTSEVLESNGSSAMASACGGSLALMDSGVPISSAVAGVAIGLVTKTDPEKGEIEDYRLLTDILGIEDYNGDMDFKIAGTNKGITALQADIKLPGIPIKIVMEAIQQASVAKKEILQIMNKTISKPRASRKENGPVVETVQVPLSKRAKFVGPGGYNLKKLQAETGVTISQVDEETFSVFAPTPSAMHEARDFITEICKDDQEQQLEFGAVYTATITEIRDTGVMVKLYPNMTAVLLHNTQLYQRKIKHPTALGLEVGQEIQVKYFGRDPADGRMRLSRKVLQSPATTVVRTLNDRSSIVMGEPISQSSSNSQ
- stoichiometry N (SEC): 3
